Experimental data taken from patent publication US20070116673A1, “Method for activating T cell protein phosphatase and therapeutical methods based thereon” (Valtion Teknillinen Tutkimuskeskus, priority 2005, published 2007).
Where a name gives a salt, the structure may show the parent alone.

Legend:
SHP-2 = target: T1, SHP-2 (Homo sapiens, UniProt Q06124); experiment: Phosphatase assay of immunoprecipitated SHP-2 from HeLa lysates (diFMUP substrate); format: biochemical; settings: FIG. 2A
T1 construct: endogenous in cells; host or cells: HeLa
T1 sequence (Q06124 1-593): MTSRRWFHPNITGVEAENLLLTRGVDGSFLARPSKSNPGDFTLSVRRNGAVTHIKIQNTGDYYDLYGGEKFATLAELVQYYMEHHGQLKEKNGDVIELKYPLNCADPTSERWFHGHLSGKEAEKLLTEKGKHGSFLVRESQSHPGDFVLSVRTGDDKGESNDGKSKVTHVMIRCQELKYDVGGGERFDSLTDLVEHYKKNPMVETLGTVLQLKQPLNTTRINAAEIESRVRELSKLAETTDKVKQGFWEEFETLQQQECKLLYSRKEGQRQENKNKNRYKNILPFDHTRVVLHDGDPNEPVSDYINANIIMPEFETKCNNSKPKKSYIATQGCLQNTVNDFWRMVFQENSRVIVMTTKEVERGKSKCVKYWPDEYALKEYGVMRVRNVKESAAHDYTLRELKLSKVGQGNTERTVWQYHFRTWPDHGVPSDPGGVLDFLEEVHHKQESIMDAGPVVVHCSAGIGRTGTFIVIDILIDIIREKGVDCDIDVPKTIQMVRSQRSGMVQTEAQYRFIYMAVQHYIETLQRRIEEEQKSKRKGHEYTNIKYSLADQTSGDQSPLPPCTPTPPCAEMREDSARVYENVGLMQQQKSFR
Description: (§1) Serum starved Hela cells were either left untreated on plastic, stimulated with 10% FBS for 30 min or detached and replated on collagen type I or poly-L-lysine (10 μg/ml, Sigma) coated tissue-culture plates for 1 h. When indicated cells were surface biotinylated as described^12. Cells were either lysed in Laemmli sample buffer and fractionated on SDS-PAGE for western blotting or lysed in lysis buffer and equal amounts of protein from each sample were precleared with protein G-Sepharose and subjected to immunoprecipitation. Antibodies (anti-TCPTP, Oncogene; anti-a1, anti-a5, anti-a6, all from Chemicon; anti-SHP-2, Santa Cruz) were incubated with protein G-Sepharose and immunoprecipitation was performed at 4° C. for 2 h. The immunoprecipitates were washed three times with cell lysis buffer. For co-precipitation assays, proteins were resolved on SDS-PAGE followed with western blotting or detection of biotin with Vectastain reagent (Vector). […] The phosphatase reaction was allowed to proceed for 10 minutes in RT and stopped with urea followed with measurement of umbelliferone fluorescence according to manufacturers instructions (Molecular Probes). […] Specific binding of antibodies was detected with peroxidase-conjugated secondary antibodies and visualized by enhanced chemiluminescence detection.

TCPTP [1] = target: T2, TCPTP (Homo sapiens, UniProt P17706); experiment: Phosphatase assay of immunoprecipitated TCPTP from HeLa lysates (diFMUP substrate); format: biochemical; settings: peptide preincubated with immunoprecipitate 15 min; FIG. 2A
T2 construct: endogenous in cells; host or cells: HeLa
T2 sequence (P17706 1-415): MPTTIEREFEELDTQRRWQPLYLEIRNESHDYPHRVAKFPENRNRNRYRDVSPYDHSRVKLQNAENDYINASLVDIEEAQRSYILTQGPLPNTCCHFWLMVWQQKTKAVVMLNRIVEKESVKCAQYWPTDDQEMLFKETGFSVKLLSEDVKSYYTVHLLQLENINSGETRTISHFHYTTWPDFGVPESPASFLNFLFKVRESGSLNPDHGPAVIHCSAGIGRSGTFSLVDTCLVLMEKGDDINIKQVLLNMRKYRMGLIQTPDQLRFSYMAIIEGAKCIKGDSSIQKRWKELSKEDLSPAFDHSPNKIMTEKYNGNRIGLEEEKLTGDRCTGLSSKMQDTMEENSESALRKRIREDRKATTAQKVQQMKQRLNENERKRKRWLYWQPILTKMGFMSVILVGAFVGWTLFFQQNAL
Description: as §1

TCPTP [2] = target: T3, TCPTP (Homo sapiens, UniProt P17706); experiment: Phosphatase assay with recombinant, purified TCPTP (diFMUP substrate); format: biochemical; parameters: For phosphatase assays with purified protein, full length TCPTP was incubated in phosphatase reaction buffer; GST (N); made in house; host or cells: E. coli BL21 pLysS; settings: FIG. 2B; for activation of TCPTP by small molecule compounds: preincubated with 0.2 μg/ml TCPTP 10 minutes RT, different concentrations
T3 sequence (P17706 1-387 isoform P17706-2): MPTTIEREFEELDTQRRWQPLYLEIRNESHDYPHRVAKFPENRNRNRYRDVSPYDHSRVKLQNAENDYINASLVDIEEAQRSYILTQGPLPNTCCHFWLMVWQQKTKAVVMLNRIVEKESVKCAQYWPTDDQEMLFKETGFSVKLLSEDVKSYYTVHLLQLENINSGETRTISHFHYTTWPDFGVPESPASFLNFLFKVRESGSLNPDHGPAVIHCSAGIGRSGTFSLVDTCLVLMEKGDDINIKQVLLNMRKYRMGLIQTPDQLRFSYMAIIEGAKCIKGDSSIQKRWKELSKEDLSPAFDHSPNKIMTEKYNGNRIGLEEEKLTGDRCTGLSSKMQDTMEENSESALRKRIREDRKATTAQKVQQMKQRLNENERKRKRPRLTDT
Description: Serum starved Hela cells were either left untreated on plastic, stimulated with 10% FBS for 30 min or detached and replated on collagen type I or poly-L-lysine (10 μg/ml, Sigma) coated tissue-culture plates for 1 h. When indicated cells were surface biotinylated as described^12. Cells were either lysed in Laemmli sample buffer and fractionated on SDS-PAGE for western blotting or lysed in lysis buffer and equal amounts of protein from each sample were precleared with protein G-Sepharose and subjected to immunoprecipitation. Antibodies (anti-TCPTP, Oncogene; anti-a1, anti-a5, anti-a6, all from Chemicon; anti-SHP-2, Santa Cruz) were incubated with protein G-Sepharose and immunoprecipitation was performed at 4° C. for 2 h. The immunoprecipitates were washed three times with cell lysis buffer. For co-precipitation assays, proteins were resolved on SDS-PAGE followed with western blotting or detection of biotin with Vectastain reagent (Vector). For phosphatase assays, immunoprecipitates were resuspended in phosphatase reaction buffer (25 mM Hepes pH 7.4, 50 mM NaCl, 1 mM DTT) and ⅓ of the reaction was subjected to western blotting and the remaining beads were assayed for phosphatase activity in triplicate using diFMUP (Molecular Probes) as a substrate and in the presence of serine/threonine phosphatase inhibitor cocktail (Sigma) according to manufacturers instructions. When indicate synthetic peptides were preincubated with the immunoprecipitates for 15 min prior to phosphatase assay reaction (α2 peptide […] (SEQ ID NO:6), a kind gift from Dr Heino). For phosphatase assays with purified protein, full length TCPTP was incubated in phosphatase reaction buffer in the presence or absence of TCPTP deletion mutant proteins and synthetic integrin cytoplasmic tail peptides as indicated. […] The phosphatase reaction was allowed to proceed for 10 minutes in RT and stopped with urea followed with measurement of umbelliferone fluorescence according to manufacturers instructions (Molecular Probes). Western blotting was performed with commercial antibodies raised against EGFR, EGFR(PY)845, 992 or 1068 (Cell Signalling Technologies), TCPTP (Oncogene) or tubulin (Santa Cruz Biotechnology). Specific binding of antibodies was detected with peroxidase-conjugated secondary antibodies and visualized by enhanced chemiluminescence detection.

TCPTP [3] = target: T3, TCPTP; experiment: Pull-down competition: purified TCPTP with GST-α1cyt fusion protein; format: binding; parameters: purified full-length TCPTP was incubated in the lysis buffer with GST-fusion proteins; GST (N); made in house; host or cells: E. coli BL21 pLysS; settings: peptide 1 μg/ml, TCPTP 1 μg; FIG. 1F
Description: α1cyt and a2cyt were subcloned into pGEX4T1 (Amersham Biosciences). Full length TCPTP (45 kD) and its deletion mutants were PCR-amplified from pCG-TC45 plasmid^11 and cloned into pGEX-6P-1. GST-fusion proteins were expressed in E. coli (BL21 pLysS) and purified using manufacturer's instructions (Amersham Biosciences). Fusion proteins were either used immobilized to Glutathione-sepharose, eluted with 25 mM glutathione or GST was cleaved using precision protease according to manufacturers instructions (Amersham Biosciences). For pull-down assays, Hela cells were lysed to lysis buffer (1% octylglycoside, 50 mM Tris-HCl pH 7.5, 150 mM NaCl, 1 mM MgCl2, complete protease inhibitor (Roche)), clarified with centrifugation 10 min 13000 rpm+4 C, precleared with glutathione-sepharose and incubated with immobilized GST-fusion proteins and washed 3 times with 1 ml on the same buffer. Bound proteins were resolved on SDS-PAGE and detected with western blot. Alternatively, purified full-length TCPTP was incubated in the lysis buffer with GST-fusion proteins as indicated in the presence or absence of synthetic integrin α1 cytoplasmic tail peptide (RPLKKKMEKRPLKKKMEK, (SEQ ID NO:5) Genemed Synthesis).

HeLa cells = experiment: Microinjection of fluorescein diphosphate (FDP) and peptide into live HeLa cells, phosphatase activity; format: cell-based, human; settings: 1 mg/ml peptide co-injected with 1 mM FDP, 30 min; compared with α2 or PBS; FIG. 4A
Description: Cells were plated on acid-washed glass coverslips coated with collagen type I, fibronectin or poly-L-lysine (10 μg/ml) and allowed to adhere for 1 h. Cells were washed in PBS and fixed with 4% paraformaldehyde for 10 min. For antibody staining, cells were permeabilized in PBS/0.1% Triton X-100 and washed with PBS/1% (w/v) BSA for blocking. Cells were stained with antibodies as indicated for 1 h at room temperature. Cells were then washed three times with PBS before detection with Alexa-488 or Alexa-555-conjugated anti-rabbit or anti-mouse antibodies (Molecular Probes). After washing in PBS and water, cells were mounted in Mowiol (100 mM Tris-HCl at pH 8.5, 10% (w/v) Mowiol (Calbiochem, San Diego, Calif.) and 25% (v/v) glycerol containing antifade (2.5% (w/v) 1,4-diazadicyclo-2.2.2-octane (Sigma)). Slides were examined using Zeiss inverted fluorescence microscope or a confocal laser scanning microscope (Axioplan 2 with LSM 510; Carl Zeiss Inc., Jena, Germany) equipped with 63×/1.4 Plan-Apochromat oil immersion objectives. Confocal images represent a single z-section of approximately 1.0 μm. Cytosolic microinjections with 1 mM FDP (Molecular probes) and 1 mg/ml of peptide in PBS were performed on Hela cells cultured on glass-bottom 3 cm plates. Fluorescence images from live cells were taken with identical settings and intensities were quantified using Zeiss Axioplan4 software.

Compound	activation of SHP-2 phosphatase (SHP-2)	increase of catalytic activity of immunoprecipitated TCPTP (TCPTP [1])	activation of TCPTP by small molecule compounds (TCPTP [2])	further results
α2 tail peptide: synthetic α2 integrin cytoplasmic tail peptide KLGFFKRKYEKMTKNPDEIDETTELSS (SEQ ID NO:6) (fusion protein)	not activated	no effect	–	–
NCCCCNCCCN [Spermidine]	–	–	able to activate TCPTP	–
O=C1c2c(O)ccc(O)c2C(=O)c2c(NCCNCCO)ccc(NCCNCCO)c21 [Mitoxantrone]	–	–	able to activate TCPTP	–
N.N.N.N.N.N.N.N.N.N.N.N.N.N.[Cl-].[Cl-].[Cl-].[Cl-].[Cl-].[Cl-].[O-2].[O-2].[Ru+3].[Ru+3].[Ru+4] [Ruthenium Red]	–	–	able to activate TCPTP	–
synthetic α1 tail peptide: synthetic integrin α1 cytoplasmic tail peptide RPLKKKMEKRPLKKKMEK (SEQ ID NO:5), Genemed Synthesis (fusion protein)	not activated	2.95±0.48 fold	–	competition with α1cyt for the association with TCPTP (TCPTP [3]): able to compete; activation of recombinant, purified TCPTP by peptide (TCPTP [2]; TCPTP 0.15 μg/ml, different peptide concentrations): highly activated; phosphatase activity in live HeLa cells (FDP fluorescence) (HeLa cells): induced phosphatase activity
NCCC1CCCC(CCN)N1 (centres unmarked) [MDL-26,630 trihydrochloride]	–	–	able to activate TCPTP	–
